Data on one substance can be found in FireProtDB (doi:10.1093/jb/mvy087).

For this series the following is noted: Equus caballus; pH 7; Thermal; CD; CAPS buffer; transition: 2; reversible: yes.

As a reminder, the Tm is the temperature at which the thermal transition is half complete.

Chain of Cytochrome c wild type, P00004 (P00004 whole entry): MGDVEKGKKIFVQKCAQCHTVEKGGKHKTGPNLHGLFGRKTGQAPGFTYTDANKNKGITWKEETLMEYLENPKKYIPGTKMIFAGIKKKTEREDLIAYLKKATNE

As to Cytochrome c wild type, P00004, the Tm was found to be 83.4 °C, the “heat capacity change of unfolding” value is 1.3 kcal/mol/K and the “unfolding enthalpy (calorimetric)” value stood at 76.7 kcal/mol.
